What follows are substances tested against T1, ENL YEATS domain (AviSUMO-ENL YEATS) (Homo sapiens, UniProt Q03111) (assay: Phage panning of BuK-containing 7-mer library against AviSUMO-ENL YEATS with Illumina NGS abundance). Settings: sheet ENLR3: round 3 of panning against ENL YEATS; TAG = amber codon (BuK); 7-mer library positions V1-V7.
T1 construct: encoding ENL YEATS (aa 1−148) was cloned in pET28a-; made in house; host or cells: E. coli BL21(DE3pLysS), co-expressed with BirA (pBirAcm)
T1 sequence (Q03111 1-148): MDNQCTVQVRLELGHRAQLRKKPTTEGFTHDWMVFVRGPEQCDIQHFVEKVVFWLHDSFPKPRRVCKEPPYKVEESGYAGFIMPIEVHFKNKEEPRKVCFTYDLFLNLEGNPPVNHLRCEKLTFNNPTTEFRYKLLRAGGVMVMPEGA
Excerpt: We utilized a previously established amber-obligate 7-mer phage display library to develop a phage display library enriched with BuK-containing 7-mer peptides. For detailed characterizations, including analysis of amber codon percentages, NNK trinucleotide analysis, and amino acid distribution at each position within the library, please refer to the work of Tharp et al.[10] Furthermore, the comprehensive raw NGS data for the amber-obligate 7-mer phage library can be found in the NCBI’s Sequence Read Archive, under the accession ID PRJNA606283. To produce the BuK-containing 7-mer phage library, the phages were produced in the presence of 5 mM BuK using TOP10 cells harboring the following three plasmids: (1) pADL-gIII, which contains the 7-mer amber-obligate peptide-coding DNA library positioned at the N-terminus of M13 pIII gene; (2) pCDF-BuKRS, which encodes BuKRS and its cognate tRNA^Pyl for the genetic incorporation of BuK at amber codons in the 7-mer library; and (3) M13KO7TAA, a helper phage plasmid engineered to have a TAA mutation at pIII so that its lack of a functional pIII allows an efficient multivalent display of the 7-mer library. The ENL YEATS domain containing an N-terminal AviSUMO-Tag was recombinantly expressed in E. coli together with BirA, a biotin ligase, for site-specific biotinylation at the AviTag. The biotinylated AviSUMO-ENL YEATS was immobilized on streptavidin-coated magnetic beads for panning with the BuK-containing phages. […] Phage libraries collected from the first and third rounds of selection were sequenced using Illumina next generation sequencing (NGS) and all sequenced data are available through the NCBI SRA database (Project PRJNA1041845). To prevent possible sequencing errors from affecting conclusions, sequences were filtered using previously published paired-end processing,[10] where any sequences containing more than one mismatch in the nonlibrary region or any mismatch in the library region were discarded. The NGS data provided DNA sequences encompassing both the library and nonlibrary regions. In our analysis, we included data from the nonlibrary region as a stringent quality control measure to filter out low-quality data. For our analysis, we utilized 51 nucleotides from the NGS output, with 21 nucleotides encoding the library region and an additional 30 nucleotides for the nonlibrary region. […] Among all the sequences, only 85 of them contained more than 100 copies (blue area), while the remaining sequences all had low abundances (<10^2 copies, dark and light gray areas), which constituted 85.2% of the first round population. After three panning rounds, the selection converged to two highly enriched sequences: YDVYCYX (ENL-S1) and WWIIEXG (ENL-S2, X denotes BuK). Out of 551 different unique sequences collected from the third round, ENL-S1 and ENL-S2 represented 85% of the entire library (Figure 2A and Figures S6–S8). Both peptide sequences corresponded to their own unique DNA sequence, rather than there being varying codons encoding the same amino acids (Figure S7). […] Two motifs were found in the majority of sequences with high abundance (greater than 0.1%) (Figure S6). A Y(C/L)Y pattern was identified in the residues adjacent to BuK in four of the eight top sequences. Also, an H(L/Y)(T/V)LFXG (X denotes BuK) motif was observed, albeit at lower abundances, in two of the top sequences. In the initial round of selection, we observed that only a small percentage of phages were eluted, which aligns with typical outcomes in phage selection experiments since only a low copy number of phages can bind to the target.[10],[45] With each successive round of selection, we noted a gradual increase in the percentage of phages eluted. This incremental, rather than sharp, increase was attributed to the intensification of selection pressures, such as the application of more stringent washing protocols. We aimed for the incremental increase to retain potent clones with low copy numbers from the previous selection cycle. […]

Substance	n (number of NGS reads of the unique amino acid sequence)	percent (share of sequence reads) [%]
YDVYCYY	26	0.02368
CDVYCYTAG	10	0.009106
SCPPRTAGD	10	0.009106
QCGPQTAGD	2	0.001821
QCGPRYD	11	0.01002
HHVLFTAGG	1	0.0009106
LNAEFTAGA	1	0.0009106
WLIIETAGG	30	0.02732
CYVCRFL	1	0.0009106
KMPFTAGIS	1	0.0009106
CWVCLPH	1	0.0009106
WWIIKTAGG	9	0.008196
LLIIETAGG	1	0.0009106
WWIIGTAGG	6	0.005464
QCGQRTAGD	10	0.009106
FLTRCML	1	0.0009106
CWSTAGNGD	1	0.0009106
WQDTTAGTY	2	0.001821
HLTLFTAGC	2	0.001821
FEISEWTAG	2	0.001821
IQTAGITAS	1	0.0009106
HPIYCYTAG	1	0.0009106
YDVFCYTAG	8	0.007285

Now from value to substance:

n (number of NGS reads of the unique amino acid sequence)	percent (share of sequence reads) [%]	Substance
19	0.0173	WCIIETAGG
10	0.009106	QCCPRTAGD
10	0.009106	QCGPRTAGY
2	0.001821	WWTIETAGG
1	0.0009106	IHVYCTAGV
1006	0.9161	YLYTAGVPC
23	0.02094	WWIIETAGD
10	0.009106	HCGPRTAGD
1	0.0009106	IRCHPWTAG
2	0.001821	SCVVFTAGI
5	0.004553	YLYTAGFPC
1	0.0009106	GRAVDTAGG
1	0.0009106	HMTLFTAGG
13	0.01184	YDVYCHTAG
1	0.0009106	DMFRSTAGI
1	0.0009106	CTYVITAGV
2	0.001821	SMHACTAGT
22	0.02003	CWIIETAGG
1	0.0009106	HYVLFYG
1	0.0009106	LTAGMPRSF
9049	8.24	QCGPRTAGD
33339	30.359	WWIIETAGG
26	0.02368	YDVYCYW

Same assay, conditions: sheet ENLR3: round 3 of selection against ENL YEATS; TAG = amber codon (BuK)

Substance	n (number of NGS reads of the 7-mer sequence V1-V7)	percent (share of NGS reads of the 7-mer sequence V1-V7) [%]
SLERTAGGF	1	0.0009106
YWTAGCARV	1	0.0009106
YVCPWTAGG	1	0.0009106
TAGSFLYSF	1	0.0009106
WFIYTAGGC	1	0.0009106
RCGPRTAGD	1	0.0009106
YLYVTAGAC	1	0.0009106
SSGTAGKCV	1	0.0009106
QCAPRTAGD	1	0.0009106
WWIIELG	1	0.0009106

Next, values leading:

n (number of NGS reads of the 7-mer sequence V1-V7)	percent (share of NGS reads of the 7-mer sequence V1-V7) [%]	Substance
1	0.0009106	QCGPRTAGG
1	0.0009106	WWILETAGG
1	0.0009106	WWINETAGG
1	0.0009106	TAGAFFCIL
1	0.0009106	QCDPRTAGD
1	0.0009106	TAGMVHIMV
1	0.0009106	YDVYCYE
1	0.0009106	WLAWRHL
1	0.0009106	YAVYCYTAG
1	0.0009106	RTAGTESQL
1	0.0009106	YLYLVPC
1	0.0009106	SWSITFTAG

From paper PMC11046469, “Leveraging a Phage-Encoded Noncanonical Amino Acid: A Novel Pathway to Potent and Selective Epigenetic Reader Protein Inhibitors” (ACS Central Science, 2024)
